# From PMC11257959, “Structural basis of the histone ubiquitination read–write mechanism of RYBP–PRC1” (Nature Structural & Molecular Biology, 2024)
# T1: RING1B:BMI1 full-length heterodimer (human, UniProt Q99496 1-336; P35226 1-326)
# T1 construct: also called RING1B:BMI1 dimer; source: High Five insect cells (baculovirus, coexpressed from one vector), purified (Ni-NTA, twin strep-tag cleavage, SEC); not shown: twin strep-tag, N-terminal, cleaved; His6, C-terminal, kept
# T1 sequence (looked up) 1: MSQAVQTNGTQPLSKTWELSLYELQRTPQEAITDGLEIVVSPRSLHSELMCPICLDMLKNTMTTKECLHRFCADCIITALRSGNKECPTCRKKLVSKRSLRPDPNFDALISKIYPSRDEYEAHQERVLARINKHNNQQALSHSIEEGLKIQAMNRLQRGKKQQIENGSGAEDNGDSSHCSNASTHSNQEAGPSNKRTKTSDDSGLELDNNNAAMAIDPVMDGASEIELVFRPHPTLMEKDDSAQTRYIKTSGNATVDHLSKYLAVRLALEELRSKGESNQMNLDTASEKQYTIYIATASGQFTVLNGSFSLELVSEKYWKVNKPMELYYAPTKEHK
# T1 sequence (looked up) 2: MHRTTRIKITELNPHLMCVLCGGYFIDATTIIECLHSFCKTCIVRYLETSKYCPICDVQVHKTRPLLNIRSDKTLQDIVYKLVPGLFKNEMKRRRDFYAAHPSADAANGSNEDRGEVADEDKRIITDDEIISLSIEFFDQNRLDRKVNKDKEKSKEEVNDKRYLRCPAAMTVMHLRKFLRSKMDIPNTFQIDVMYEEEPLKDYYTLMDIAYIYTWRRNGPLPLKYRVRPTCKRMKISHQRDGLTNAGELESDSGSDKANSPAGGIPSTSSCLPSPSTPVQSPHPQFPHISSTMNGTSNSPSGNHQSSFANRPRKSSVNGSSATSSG
# T2: human RING1B, full length (human, UniProt Q99496 1-336)
# T2 construct: In the cryo-EM sample a subunit of vPRC1; residues 15-115 were built; source: High Five insect cells (baculovirus), coexpressed with BMI1, purified; not shown: twin strep-tag, N-terminal, cleaved
# T2 sequence (looked up): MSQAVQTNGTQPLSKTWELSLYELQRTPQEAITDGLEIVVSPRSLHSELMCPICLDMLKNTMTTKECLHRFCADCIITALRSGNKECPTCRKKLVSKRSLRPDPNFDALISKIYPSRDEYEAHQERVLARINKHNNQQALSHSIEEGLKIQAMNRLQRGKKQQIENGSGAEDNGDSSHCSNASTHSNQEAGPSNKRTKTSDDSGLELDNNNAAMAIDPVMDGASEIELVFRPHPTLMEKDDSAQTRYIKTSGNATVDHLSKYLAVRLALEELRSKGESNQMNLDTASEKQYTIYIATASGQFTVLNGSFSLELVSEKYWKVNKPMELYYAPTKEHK
# Legend:
# [1] = target: T1, RING1B:BMI1 full-length heterodimer; experiment: SEC; purified RYBP mixed with purified RING1B:BMI1 at a 1:1 molar ratio, cation exchange, then SEC in 25 mM Tris-HCl pH 7, 150 mM NaCl, 10% glycerol, 2 mM DTT; conditions: both partners purified
# human ubiquitin = target: T3, human ubiquitin (human, UniProt P0CG47 1-76, conjugated to H2A); experiment: cryo-EM structure; vPRC1:Nuc_(H2Aub1); Nuc_(H2Aub1)/vPRC1 ratio of 1:5 in UB buffer, 1 h at 4 °C; biotinylated nucleosomes bound to streptavidin-coated grids, two additional washes; conditions: both partners purified
# T3 construct: human ubiquitin, the cut product of the precursor; Stood as the ubiquitin moiety of H2Aub1 in the nucleosome; source: bought: Boston Biochem; conjugated to H2A of the nucleosome in vitro
# [2] = target: T4, Drosophila melanogaster histone H4 (D. melanogaster, UniProt P84040 1-103); experiment: cryo-EM structure; vPRC1:Nuc; Nuc/vPRC1 ratio of 1:10 in UB buffer, 1 h at 4 °C; biotinylated nucleosomes bound to streptavidin-coated grids; conditions: both partners purified
# T4 construct: histone H4, D. melanogaster; Stood within the nucleosome; source: bought: The Histone Source (Colorado State University); in the reconstituted nucleosome
# [3] = target: T2, human RING1B, full length; experiment: SEC; RING1B and BMI1 coexpressed in insect cells from one vector, Ni-NTA (His tag on BMI1), tag cleavage, SEC (S200); conditions: partners not purified
Binder,binding result [1],binding result (human ubiquitin),binding result [2],binding result [3]
"human RYBP, full length (natural protein, UniProt Q8N488 1-228, looked up, In the cryo-EM sample it stood as a subunit of vPRC1; residues 23-58 were built; source: High Five insect cells (baculovirus), purified (Ni-NTA, His tag cleavage, reverse Ni-NTA); not shown: His6, N-terminal, cleaved) MTMGDKKSPTRPKRQAKPAADEGFWDCSVCTFRNSAEAFKCSICDVRKGTSTRKPRINSQLVAQQVAQQYATPPPPKKEKKEKVEKQDKEKPEKDKEISPSVTKKNTNKKTKPKSDILKDPPSEANSIQSANATTKTSETNHTSRPRLKNVDRSTAQQLAVTVGNVTVIITDFKEKTRSSSTSSSTVTSSAGSEQQNQSSSGSESTDKGSSRSSTPKGDMSAVNDESF",binds,binds,,
"RYBP_(T31A/F32A) (natural protein, human, UniProt Q8N488 1-228, looked up, source: High Five insect cells (baculovirus), purified following the same procedure as the wild-type protein; not shown: His6, N-terminal, cleaved) MTMGDKKSPTRPKRQAKPAADEGFWDCSVCAARNSAEAFKCSICDVRKGTSTRKPRINSQLVAQQVAQQYATPPPPKKEKKEKVEKQDKEKPEKDKEISPSVTKKNTNKKTKPKSDILKDPPSEANSIQSANATTKTSETNHTSRPRLKNVDRSTAQQLAVTVGNVTVIITDFKEKTRSSSTSSSTVTSSAGSEQQNQSSSGSESTDKGSSRSSTPKGDMSAVNDESF",binds,,,
"RYBP_(R47A/R53A/R56A) (natural protein, human, UniProt Q8N488 1-228, looked up, source: High Five insect cells (baculovirus), purified following the same procedure as the wild-type protein; not shown: His6, N-terminal, cleaved) MTMGDKKSPTRPKRQAKPAADEGFWDCSVCTFRNSAEAFKCSICDVAKGTSTAKPAINSQLVAQQVAQQYATPPPPKKEKKEKVEKQDKEKPEKDKEISPSVTKKNTNKKTKPKSDILKDPPSEANSIQSANATTKTSETNHTSRPRLKNVDRSTAQQLAVTVGNVTVIITDFKEKTRSSSTSSSTVTSSAGSEQQNQSSSGSESTDKGSSRSSTPKGDMSAVNDESF",binds,,,
"human BMI1, full length (natural protein, UniProt P35226 1-326, looked up, In the cryo-EM sample a subunit of vPRC1; residues 3-107 were built; also called BIM1; source: High Five insect cells (baculovirus), coexpressed with RING1B, purified; not shown: His6, C-terminal, kept) MHRTTRIKITELNPHLMCVLCGGYFIDATTIIECLHSFCKTCIVRYLETSKYCPICDVQVHKTRPLLNIRSDKTLQDIVYKLVPGLFKNEMKRRRDFYAAHPSADAANGSNEDRGEVADEDKRIITDDEIISLSIEFFDQNRLDRKVNKDKEKSKEEVNDKRYLRCPAAMTVMHLRKFLRSKMDIPNTFQIDVMYEEEPLKDYYTLMDIAYIYTWRRNGPLPLKYRVRPTCKRMKISHQRDGLTNAGELESDSGSDKANSPAGGIPSTSSCLPSPSTPVQSPHPQFPHISSTMNGTSNSPSGNHQSSFANRPRKSSVNGSSATSSG",,,binds,binds
